The results in this text go back to patent US8492329B2, “Bioactive peptides and methods of using same” (Compugen Ltd., priority 2007, dated 2013).

“Also recorded” adds a separate entry of the source. No end group written: not given here.

One test addresses T1, GPR135 (RXFP3) (Homo sapiens, UniProt Q9NSD7).
T1 construct: host or cells: CHO-K1 recombinant cell line (Euroscreen)
T1 sequence (Q9NSD7 1-469): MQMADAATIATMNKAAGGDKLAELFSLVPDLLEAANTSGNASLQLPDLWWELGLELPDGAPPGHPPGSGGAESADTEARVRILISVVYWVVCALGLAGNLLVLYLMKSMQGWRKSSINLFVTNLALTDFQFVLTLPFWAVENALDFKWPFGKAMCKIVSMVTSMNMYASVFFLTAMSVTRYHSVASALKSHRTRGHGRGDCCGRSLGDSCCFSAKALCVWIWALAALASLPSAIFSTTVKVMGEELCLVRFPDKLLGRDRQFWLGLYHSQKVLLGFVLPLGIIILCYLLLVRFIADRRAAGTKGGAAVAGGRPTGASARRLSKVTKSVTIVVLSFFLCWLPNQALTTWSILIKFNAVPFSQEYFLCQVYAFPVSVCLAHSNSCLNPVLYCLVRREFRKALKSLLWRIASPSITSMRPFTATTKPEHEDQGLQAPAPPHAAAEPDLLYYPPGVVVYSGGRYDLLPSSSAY
The test can be described thus: cAMP HTRF assay on Euroscreen RXFP3 recombinant cells. Format: cell-based. Conditions: increasing concentrations, 30 min; FIG. 5. The procedure: The ability of P59C13V (SEQ ID NO: 6) and H3 Relaxin to activate CHO-K1 cells transfected by GPR135 (RXFP3), which is a non-LGR, Relaxin related receptor, was tested. The assay was performed by Euroscreen. For cAMP concentration analysis, Euroscreen cat. ES-656-A-cells (RXFP3, Euroscreen cat. ES-656-A) grown to mid-log phase in culture media without antibiotics were detached with PBS-EDTA, centrifuged and resuspended in assay buffer at a concentration of […]. The test was performed in 96 well plates. For agonist testing, 12 μl of cells (5×10^3 cells/well) were mixed with 12 μl of agonist Either H3-Relaxin or P59C13V (P59) (SEQ ID NO: 6) at increasing concentrations. The plates were then incubated for 30 min at room temperature. After addition of the lysis buffer, cAMP concentrations were estimated, according to the manufacturer specification, with the HTRF kit from Cis-Bio International (cat no 62AM2PEB).
.Relaxin 3 Fit (Eeuroscreen) was used as a positive control. RXFP3 (GPCR135) transfected cells were challenged with increasing concentrations of Relaxin 3 (H3 Relaxin—as a positive control—[…]) or P59C13V (P59) (SEQ ID NO: 6) (1 nM-3 uM).

The target of the next test is T2, LGR6 (Homo sapiens, UniProt Q9HBX8).
T2 construct: expressed in transfected cells; host or cells: CHO-K1 (transient)
T2 sequence (Q9HBX8 25-967): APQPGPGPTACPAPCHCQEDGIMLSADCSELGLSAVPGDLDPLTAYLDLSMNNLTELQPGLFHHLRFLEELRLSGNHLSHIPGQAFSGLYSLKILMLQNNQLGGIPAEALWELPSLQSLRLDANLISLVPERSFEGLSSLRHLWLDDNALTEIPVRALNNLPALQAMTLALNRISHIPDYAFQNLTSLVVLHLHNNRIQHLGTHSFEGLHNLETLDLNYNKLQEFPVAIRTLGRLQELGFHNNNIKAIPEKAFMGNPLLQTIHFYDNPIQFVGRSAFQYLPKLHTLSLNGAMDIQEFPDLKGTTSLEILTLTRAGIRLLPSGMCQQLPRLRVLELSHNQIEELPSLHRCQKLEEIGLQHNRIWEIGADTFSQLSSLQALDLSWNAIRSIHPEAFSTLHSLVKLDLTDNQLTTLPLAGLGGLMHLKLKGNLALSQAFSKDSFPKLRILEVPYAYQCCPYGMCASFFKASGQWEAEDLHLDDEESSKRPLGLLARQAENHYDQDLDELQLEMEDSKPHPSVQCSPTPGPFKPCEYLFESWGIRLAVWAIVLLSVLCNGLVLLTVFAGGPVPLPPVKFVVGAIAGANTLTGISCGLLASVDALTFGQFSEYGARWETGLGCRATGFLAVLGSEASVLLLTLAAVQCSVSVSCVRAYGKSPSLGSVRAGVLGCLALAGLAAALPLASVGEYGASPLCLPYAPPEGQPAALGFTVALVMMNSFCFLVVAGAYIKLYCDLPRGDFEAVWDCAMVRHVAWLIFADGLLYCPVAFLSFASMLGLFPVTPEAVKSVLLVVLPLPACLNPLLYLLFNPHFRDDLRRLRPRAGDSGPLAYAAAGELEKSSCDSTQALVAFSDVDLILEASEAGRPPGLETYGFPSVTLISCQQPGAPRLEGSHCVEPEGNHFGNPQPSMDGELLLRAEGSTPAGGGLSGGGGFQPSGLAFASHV
Put plainly: cAMP accumulation in CHO-K1 cells transiently transfected with LGR6. Format: cell-based. To be noted: 1 uM, without Forskolin, FIG. 3A. The procedure:
[The procedure below names another target; the source says it served here with some conditions changed.] LGR7 (RXFP1) or LGR8 (RXFP2) were transiently transfected into CHO-K1 cells as follows: Cells (12 million) were plated into T75 flasks on the day preceding transfection. Cells were transfected with a GPCR DNA and Gα16 using a lipid technique according to the manufacturer's recommendation. Cells were transfected for 5 hours, then re-plated into 96-well dishes (60,000 cells per well) and grown overnight. Transfected cells were plated into 24 wells of a 96-well plate. Cells were pre-treated with 0.5 mM IBMX (stimulation buffer) for 10 min at 37° C., then stimulated with either a positive control (Relaxin 2) or a candidate peptide (for Gs functional examination), followed by stimulation or a preincubation with 10 μM forskolin (for Gi functional examination). Following a 20 minutes stimulation by incubation with 1 μM of either positive control or the tested peptides, either with or without forskolin, intracellular cAMP was assayed using the Hit Hunter cAMP kit (DiscoveRx Corporation) according to the manufacturer's recommended protocol. Data was converted to nmol of cAMP by running a standard cAMP curve.
On the technique in general: cAMP levels reflect the balance of adenylyl cyclase and phosphodiesterase activity.

With “GQKGQVGPPGAAVRRAYAAFSV [Peptide P59C13V]”, in the test with GPR135 (RXFP3), the “cAMP activation (Gs) of RXFP3” value is “didn't show any cAMP activation (Gs)”. In the case of “GQKGQVGPPGAAVRRAYAAFSVGRRAYAAFSV-OH [Peptide P74C13V]”, at LGR6, the “Gs activation (cAMP accumulation)” value is “significant increase in cAMP accumulation; also recorded: slight Gs activation”.
